In this assay the target is TOR complex 1 (TORC1) in lysate of FLAG-Tor1 expressing yeast cells (TS269), P35169;P38873. The experiment in a line: pull-down (GST) from yeast cell lysate, western blot quantified. Conditions: chain shown with the change, read off a plot, scale: FLAG-Tor1 / GST-Pib2. In general terms: A western blot detects proteins with antibodies after separation by electrophoresis.
The mark [1] stands for this setting: without glutamine, parent: est. 1.0.

The values that follow come from paper PMC8448839.

Residue numbers refer to the chain shown, from its start. Numbers in names are those of the source.

B1: GST-Pib2(304-635), P53191 V626A (protein)
chain: LPQPASSTNLNFNSNKHKSNVRQISNPKKPLYIPAVLRKVSETNITNDDLLNATLSSYYKKASNLEHGFNPSKSQSASVQNANNLRIISSQSSVQSNTSSILESYKNKISSYLFPNSIPNSDRINLIPTISNRNSARVNPPTKDHWIPDSKRNSCRYCHKPFTLWERKHHCRHCGDIFCQDHLRHWLYLDSQANFIMINELNNGGINGGGTLCKICDDCLVEYENLSTTNHNANTNEDNINVEEGEDDDNDNRKKLRNYYKNRQMNALFRPKKGGSSQEHATVDRDTTTPIQVKSNDEEADNENTGGEQEEGNDVLGSVIGSAPANWNWSSF
For B1, the response runs as follows: (25 mM Gln, parent: est. 6.2) 2.7; under setting [1], 0.6.

B2: GST-Pib2(304-635), P53191 A628T (protein)
chain: B1 chain with A323V, A325T
Take B2: the response reads like this: (25 mM Gln, parent: est. 6.2) 3.5; under setting [1], 0.6.
